Measured values taken from patent publication US20070218064A1 (published 2007).
Residue numbers refer to the chain shown, from its start. Each block holds one binder with its values, some of them ahead of it.

Target: T1, recombinant human IL-23 (hrIL-23), produced at Centocor (human, UniProt P29460 23-328)
T1 sequence 1: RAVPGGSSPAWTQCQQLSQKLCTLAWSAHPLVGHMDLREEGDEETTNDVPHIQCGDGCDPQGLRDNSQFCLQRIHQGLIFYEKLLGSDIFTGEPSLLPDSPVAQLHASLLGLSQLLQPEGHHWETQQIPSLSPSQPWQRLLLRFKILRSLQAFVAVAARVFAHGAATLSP
T1 sequence 2: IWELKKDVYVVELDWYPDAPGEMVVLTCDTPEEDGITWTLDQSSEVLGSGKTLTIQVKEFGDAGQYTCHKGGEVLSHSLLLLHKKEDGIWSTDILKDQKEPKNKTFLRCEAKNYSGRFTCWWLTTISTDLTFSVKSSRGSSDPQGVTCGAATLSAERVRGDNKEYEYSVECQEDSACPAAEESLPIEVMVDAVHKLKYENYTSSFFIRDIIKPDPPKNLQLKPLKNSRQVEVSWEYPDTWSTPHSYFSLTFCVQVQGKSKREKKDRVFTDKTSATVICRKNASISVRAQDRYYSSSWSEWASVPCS
Assay: cell-based or functional assay

B2: mAb MOR05034 (antibody, IgG1, V domains shown)
VH: QVELVQSGAEVKKPGSSVKVSCKASGGTFSSNYISWVRQAPGQGLEWMGIPFGAYAQKFQGRVTITADESTSTAYMELSSLRSEDTAVYYCARSKKGMYGGWTYPLMMFDLWGQGTLVTVSS
VL: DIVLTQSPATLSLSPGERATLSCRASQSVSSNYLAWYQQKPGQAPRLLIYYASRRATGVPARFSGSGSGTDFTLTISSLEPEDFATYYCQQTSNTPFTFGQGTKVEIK
- Inhibition of IL-17 production, IC50: 0.185 µg/mL

B3: mAb MOR05037 (antibody, IgG1, V domains shown)
VH: B2 VH
VL: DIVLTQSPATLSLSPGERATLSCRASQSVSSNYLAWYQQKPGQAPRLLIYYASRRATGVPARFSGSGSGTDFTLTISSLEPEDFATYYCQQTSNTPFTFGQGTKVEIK
- Inhibition of IL-17 production, IC50: 0.336 µg/mL

B8: mAb MOR05028 (antibody, IgG1, V domains shown)
VH: QVELVQSGAEVKKPGSSVKVSCKASGGTFSNYAISWVRQAPGQGLEWMGGIIPFGYAQKFQGRVTITADESTSTAYMELSSLRSEDTAVYYCARDIYAGMDVWGQGTLVTVSS
VL: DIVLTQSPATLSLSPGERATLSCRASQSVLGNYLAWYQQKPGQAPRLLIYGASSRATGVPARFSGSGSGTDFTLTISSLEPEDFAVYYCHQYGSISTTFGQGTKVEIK
- Inhibition of IL-17 production, IC50: 0.104 µg/mL

B11: mAb MOR05031 (antibody, IgG1, V domains shown)
VH: QVELVQSGAEVKKPGSSVKVSCKASGGTFSSNYISWVRQAPGQGLEWMGGIIPIFGHANYAQKFQGRVTITADESTSTAYMELSSLRSEDTAVYYCARSKKGMYGGWTYPLMMFDLWGQGTLVTVSS
VL: DIVLTQSPATLSLSPGERATLSCRASQSVSSNYLAWYQQKPGQAPRLLIYYASRRATGVPARFSGSGSGTDFTLTISSLEPEDFAYYCQQTPFTFGQGTKVEIK
- Inhibition of IL-17 production, IC50: 0.215 µg/mL

B12: mAb MOR05032 (antibody, IgG1, V domains shown)
VH: B11 VH
VL: B11 VL with T91N
- Inhibition of IL-17 production, IC50: 0.172 µg/mL

B13: mAb MOR05049 (antibody, IgG1, V domains shown)
VH: QVELVESGGGLVQPGGSLRLSCAASGFTFSSFGMSWVRQAPGKGLEWVSITYASVKGRFTISRDNSKNTLYLQMNSLRAEDTAVYYCARYWGTPYLMQFDNWGQGTLVTVSS
VL: DIALTQPASVSGSPGQSITISCTGTSSDVGGYNSVSWYQQHPGKAPKLMIYSVSSRPSGVSNRFSGSKSGNTASLTISGLQAEDEADYYCSSYDTNKPLVVFGGGTKLTVL
- Inhibition of IL-17 production, IC50: 0.0162 µg/mL

B14: mAb MOR05055 (antibody, IgG1, V domains shown)
VH: QVELVESGGGLVQPGGSLRLSCAASGFTFSSFGMSWVRQAPGKGLEWVSNIGTYASVKGRFTISRDNSKNTLYLQMNSLRAEDTAVYYCARYWGTPYLMQFDNWGQGTLVTVSS
VL: B13 VL
- Inhibition of IL-17 production, IC50: 0.0916 µg/mL

B15: mAb MOR05047 (antibody, IgG1, V domains shown)
VH: B14 VH
VL: B13 VL
- Inhibition of IL-17 production, IC50: 0.0234 µg/mL

B16: mAb MOR05039 (antibody, IgG1, V domains shown)
VH: B14 VH with G52T, T53Y
VL: B13 VL
- Inhibition of IL-17 production, IC50: 0.161 µg/mL

B17: mAb MOR05052 (antibody, IgG1, V domains shown)
VH: B13 VH
VL: B13 VL
- Inhibition of IL-17 production, IC50: 0.0178 µg/mL

B22: mAb MOR05038 (antibody, IgG1, V domains shown)
VH: QVELVQSGAEVKKPGSSVKVSCKASGGTFSSNYISWVRQAPGQGLEWMGIGYAQKFQGRVTITADESTSTAYMELSSLRSEDTAVYYCARSKKGMYGGWTYPLMMFDLWGQGTLVTVSS
VL: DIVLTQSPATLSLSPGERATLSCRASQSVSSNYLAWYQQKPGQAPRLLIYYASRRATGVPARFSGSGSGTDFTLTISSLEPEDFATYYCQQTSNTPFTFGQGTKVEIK
- Inhibition of IL-17 production, IC50: 0.0282 µg/mL

Other lines, results leading:

- Inhibition of IL-17 production, IC50: 0.17 µg/mL
B1: mAb MOR05036 (antibody, IgG1, V domains shown)
VH: B2 VH
VL: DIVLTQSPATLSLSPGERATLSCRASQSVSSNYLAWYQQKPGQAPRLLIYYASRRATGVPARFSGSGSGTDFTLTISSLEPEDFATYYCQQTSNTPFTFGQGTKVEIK

- Inhibition of IL-17 production, IC50: 0.283 µg/mL
B4: mAb MOR05033 (antibody, IgG1, V domains shown)
VH: B2 VH with P51I, F52P
VL: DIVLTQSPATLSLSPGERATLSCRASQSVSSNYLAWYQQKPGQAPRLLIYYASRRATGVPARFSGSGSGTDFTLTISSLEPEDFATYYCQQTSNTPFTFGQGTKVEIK

- Inhibition of IL-17 production, IC50: 0.198 µg/mL
B5: mAb MOR05063 (antibody, IgG1, V domains shown)
VH: QVELVESGGGLVQPGGSLRLSCAASGFTFSSFGMSWVRQAPGKGLEWVSNISSSGSSTYYADSVKGRFTISRDNSKNTLYLQMNSLRAEDTAVYYCARYWGTPYLMQFDNWGQGTLVTVSS
VL: DIALTQPASVSGSPGQSITISCTGTSSDVGGYNSVSWYQQHPGKAPKLMIYSVSSRPSGVSNRFSGSKSGNTASLTISGLQAEDEADYYCSDVFGGGTKLTVL

- Inhibition of IL-17 production, IC50: 0.199 µg/mL
B6: mAb MOR05062 (antibody, IgG1, V domains shown)
VH: B5 VH
VL: DIALTQPASVSGSPGQSITISCTGTSSDVGGYNSVSWYQQHPGKAPKLMIYSVSSRPSGVSNRFSGSKSGNTASLTISGLQAEDEADYYCYVFGGGTKLTVL

- Inhibition of IL-17 production, IC50: 0.309 µg/mL
B7: mAb MOR05061 (antibody, IgG1, V domains shown)
VH: B5 VH
VL: DIALTQPASVSGSPGQSITISCTGTSSDVGGYNSVSWYQQHPGKAPKLMIYSVSSRPSGVSNRFSGSKSGNTASLTISGLQAEDEADYYCSSYVFGGGTKLTVL

- Inhibition of IL-17 production, IC50: 0.0491 µg/mL
B9: mAb MOR05029 (antibody, IgG1, V domains shown)
VH: B11 VH
VL: DIVLTQSPATLSLSPGERATLSCRASQSVSSNYLAWYQQKPGQAPRLLIYYASRRATGVPARFSGSGSGTDFTLTISSLEPEDFAYYCQQTFGQGTKVEIK

- Inhibition of IL-17 production, IC50: 0.0646 µg/mL
B10: mAb MOR05030 (antibody, IgG1, V domains shown)
VH: B11 VH
VL: DIVLTQSPATLSLSPGERATLSCRASQSVSSNYLAWYQQKPGQAPRLLIYYASRRATGVPARFSGSGSGTDFTLTISSLEPEDFAYYCQQPFTFGQGTKVEIK

- Inhibition of IL-17 production, IC50: 0.092 µg/mL
B18: mAb MOR05056 (antibody, IgG1, V domains shown)
VH: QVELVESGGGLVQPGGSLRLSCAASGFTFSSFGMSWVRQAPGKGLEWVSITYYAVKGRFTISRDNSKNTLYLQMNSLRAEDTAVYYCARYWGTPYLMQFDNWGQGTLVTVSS
VL: B13 VL

- Inhibition of IL-17 production, IC50: 0.0663 µg/mL
B19: mAb MOR05051 (antibody, IgG1, V domains shown)
VH: B13 VH
VL: B13 VL

- Inhibition of IL-17 production, IC50: 0.0162 µg/mL
B20: mAb MOR05048 (antibody, IgG1, V domains shown)
VH: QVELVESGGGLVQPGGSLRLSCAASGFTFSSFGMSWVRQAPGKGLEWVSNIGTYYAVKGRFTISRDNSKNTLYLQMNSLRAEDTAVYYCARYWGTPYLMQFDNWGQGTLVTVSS
VL: B13 VL

- Inhibition of IL-17 production, IC50: 0.0277 µg/mL
B21: mAb MOR05050 (antibody, IgG1, V domains shown)
VH: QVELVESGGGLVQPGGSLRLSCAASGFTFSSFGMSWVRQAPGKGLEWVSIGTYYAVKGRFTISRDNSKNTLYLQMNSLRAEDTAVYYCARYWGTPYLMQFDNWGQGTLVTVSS
VL: B13 VL

- Inhibition of IL-17 production, IC50: 0.0144 µg/mL
B23: mAb MOR05043 (antibody, IgG1, V domains shown)
VH: QVELVQSGAEVKKPGESLKISCKGSGYSFSNYWIGWVRQMPGKGLEWMGIPSTYSPSFQGQVTISADKSISTAYLQWSSLKASDTAMYYCARWYYKPFDVWGQGTLVTVSS
VL: DIVLTQPPSVSGAPGQRVTISCTGSSSNIGSGYDVHWYQQLPGTAPKLLIYGNSKRPSGVPDRFSGSKSGTSASLAITGLQSEDEADYYCSSWTPSSVVFGGGTKLTVL

- Inhibition of IL-17 production, IC50: 0.0428 µg/mL
B24: mAb MOR05046 (antibody, IgG1, V domains shown)
VH: QVELVQSGAEVKKPGESLKISCKGSGYSFSNYWIGWVRQMPGKGLEWMGIIDPSTYSPSFQGQVTISADKSISTAYLQWSSLKASDTAMYYCARWYYKPFDVWGQGTLVTVSS
VL: B23 VL
